Earlier results, collected in US20250282866A1, “TREATMENT OF DISEASES RELATED TO ATP-BINDING CASSETTE TRANSPORTER 1 DYSFUNCTION USING TREM2 AGONISTS” (VIGIL NEUROSCIENCE, INC., priority 2020, published 2025).

T1: human TREM2 (Homo sapiens, UniProt Q9NZC2)
T1 sequence (Q9NZC2 19-230): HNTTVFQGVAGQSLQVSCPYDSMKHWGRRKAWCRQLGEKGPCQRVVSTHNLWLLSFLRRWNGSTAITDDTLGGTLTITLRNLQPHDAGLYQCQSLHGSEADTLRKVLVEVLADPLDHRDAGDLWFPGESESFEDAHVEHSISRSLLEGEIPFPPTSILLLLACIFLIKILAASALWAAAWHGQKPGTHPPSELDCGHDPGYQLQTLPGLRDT


Biological target: T1, human TREM2
Details: for Binding Signal (fold over 6E7 Parental antibody) 1st screen 110 nM or 10 nM: values printed without asterisk, concentration 110 nM or 10 nM (footnote a not given)

Molecule	Binding Signal (fold over 6E7 Parental antibody) 1st screen 110 nM or 10 nM	Binding Signal (fold over 6E7 Parental antibody) 2nd screen 2 nM	Binding Signal (fold over 6E7 Parental antibody) 2nd screen 10 nM
V73: 6E7 variant: VH T30G, S63G, Q99G; VL L54R, F94Y (antibody, V domains shown) VH: EVQLVQSGAEVKKPGESLKISCKGSGYSFGSYWIAWVRQMPGKGLEWMGIIYPGDSDTRYSPGFQGQVTISADKSISTAYLQWSSLKASDTAMYFCARGRTFYYDSSDYFDYWGQGTLVTVSS VL: DIQMTQSPSSVSASVGDRVTITCRASQGISSWLAWYQQKPGKAPKLLIYAASSRQNGVPSRFSGSGSGTDFTLTISSLQPEDFATYFCQQADSYPRTFGQGTKLEIK	5.12 fold over 6E7 Parental antibod	4.17 fold over 6E7 Parental antibod	5.44 fold over 6E7 Parental antibod
V84: 6E7 variant: VH S28G, F110S; VL A50G (antibody, V domains shown) VH: EVQLVQSGAEVKKPGESLKISCKGSGYGFTSYWIAWVRQMPGKGLEWMGIIYPGDSDTRYSPSFQGQVTISADKSISTAYLQWSSLKASDTAMYFCARQRTFYYDSSDYSDYWGQGTLVTVSS VL: DIQMTQSPSSVSASVGDRVTITCRASQGISSWLAWYQQKPGKAPKLLIYGASSLQNGVPSRFSGSGSGTDFTLTISSLQPEDFATYFCQQADSFPRTFGQGTKLEIK	1.44 fold over 6E7 Parental antibod	1.45 fold over 6E7 Parental antibod	1.62 fold over 6E7 Parental antibod
V75: 6E7 variant: VH Q99G; VL N56A, F94Y (antibody, V domains shown) VH: EVQLVQSGAEVKKPGESLKISCKGSGYSFTSYWIAWVRQMPGKGLEWMGIIYPGDSDTRYSPSFQGQVTISADKSISTAYLQWSSLKASDTAMYFCARGRTFYYDSSDYFDYWGQGTLVTVSS VL: DIQMTQSPSSVSASVGDRVTITCRASQGISSWLAWYQQKPGKAPKLLIYAASSLQAGVPSRFSGSGSGTDFTLTISSLQPEDFATYFCQQADSYPRTFGQGTKLEIK	4.64 fold over 6E7 Parental antibod	3.74 fold over 6E7 Parental antibod	4.52 fold over 6E7 Parental antibod

Other lines, results leading:

Binding Signal (fold over 6E7 Parental antibody) 1st screen 110 nM or 10 nM	Binding Signal (fold over 6E7 Parental antibody) 2nd screen 2 nM	Binding Signal (fold over 6E7 Parental antibody) 2nd screen 10 nM	Molecule
3.94 fold over 6E7 Parental antibod	2.54 fold over 6E7 Parental antibod	4.01 fold over 6E7 Parental antibod	V74: 6E7 variant: VH T30A, T58V, Q99G; VL N56L (antibody, V domains shown) VH: EVQLVQSGAEVKKPGESLKISCKGSGYSFASYWIAWVRQMPGKGLEWMGIIYPGDSDVRYSPSFQGQVTISADKSISTAYLQWSSLKASDTAMYFCARGRTFYYDSSDYFDYWGQGTLVTVSS VL: DIQMTQSPSSVSASVGDRVTITCRASQGISSWLAWYQQKPGKAPKLLIYAASSLQLGVPSRFSGSGSGTDFTLTISSLQPEDFATYFCQQADSFPRTFGQGTKLEIK
4.57 fold over 6E7 Parental antibod	4.34 fold over 6E7 Parental antibod	4.93 fold over 6E7 Parental antibod	V76: 6E7 variant: VH T30G, S63E, F110S; VL N56K (antibody, V domains shown) VH: EVQLVQSGAEVKKPGESLKISCKGSGYSFGSYWIAWVRQMPGKGLEWMGIIYPGDSDTRYSPEFQGQVTISADKSISTAYLQWSSLKASDTAMYFCARQRTFYYDSSDYSDYWGQGTLVTVSS VL: DIQMTQSPSSVSASVGDRVTITCRASQGISSWLAWYQQKPGKAPKLLIYAASSLQKGVPSRFSGSGSGRDFTLTISSLQPEDFATYFCQQADSFPRTFGQGTKLEIK
